Assay [1] deals with T1, recombinant human ErbB2/Fc chimera (human, UniProt P04626 23-652).
T1 construct: bought from R&D Systems; also called rhErbB2-Fc; rhErb2-Fc; Fc part of the bought chimera not given; not described
Put plainly: SPR (Biacore 3000), purified Nanobody over immobilised rhErbB2-Fc. (In SPR one partner is held on a chip, and binding of the other changes the refractive index at the surface.)

Assay [2] addresses T1, recombinant human ErbB2/Fc chimera. Put plainly: SPR (Biacore 3000), periplasmic extract over immobilised rhErbB2-Fc.
Assay [3] concerns the target T2, Epidermal Growth Factor Receptor 2 (HER2) (human, UniProt P04626 23-1255). Put plainly: cell-based or functional assay.
The target in assay [4] is T1, recombinant human ErbB2/Fc chimera. Put plainly: ELISA, coated ErbB2/Fc.
Assay [5] has as its target T2, Epidermal Growth Factor Receptor 2 …. The experiment in a line: flow cytometry on SKBR3 cells, periplasmic extract.
Assay [6] addresses T1, recombinant human ErbB2/Fc chimera. The experiment in a line: SPR (Biacore T100), Nanobody over immobilised rhErbB2-Fc.
Assay [7] addresses T2, Epidermal Growth Factor Receptor 2 …. The experiment in a line: FMAT competition on SKBR3 cells, periplasmic extract.

The koff is the first-order rate constant of dissociation. One may read the Kd as a measure of binding affinity in units of concentration. Usually kon stands for the rate constant with which the complex forms.

B1: 27E7-35GS-2D3 (bispecific antibody)
chain: EVQLVESGGGLVQAGGSLRLSCAASGITFRRYDMGWYRQFPGKERELVATILSEGDTNYVDPVKGRFTISRDNAKNTVYLQMNDLKPEDTAVYYCNGVWRAIGRTYWGQGTQVTVSSGGGGSGGGGSGGGGSGGGGSGGGGSGGGGSGGGGSEVQLVESGGSLVQPGGSLRLSCAASGFTFDDYAMSWVRQVPGKGLEWVSSINWSGTHTDYADSVKGRFTISRNNANNTLYLQMNSLKSEDTAVYYCAKNWRDAGTTWFEKSGSAGQGTQVTVSS
notes: biparatopic Nanobody; C-term myc-His6 tag
On to B1, for which, in assay [1], the koff was around 0.0001 s⁻¹.

B2: 27C3-35GS-2D3 (bispecific antibody)
chain: EVQLVESGGGLVQPGGSLRLSCAASGFTFDDYATSWVRQAPGKGPEWVSAINSGGGSTYYADSVKGRFTISRDNAKNTLYLQMNSLKPEDTAVYYCARPRGSSLYLLEYDYWGQGTQVTVSSGGGGSGGGGSGGGGSGGGGSGGGGSGGGGSGGGGSEVQLVESGGSLVQPGGSLRLSCAASGFTFDDYAMSWVRQVPGKGLEWVSSINWSGTHTDYADSVKGRFTISRNNANNTLYLQMNSLKSEDTAVYYCAKNWRDAGTTWFEKSGSAGQGTQVTVSS
notes: as for B1
As to B2, in assay [1], the koff was around 0.001 s⁻¹.

B3: 2A5 (VHH)
VHH: EVQLVESGGGLVQPGGSLRLSCATSGFTFDDYAMTWVRQAPGKGLEWVSSINWSGTHTDYTDSVKGRFTISRNNANNTLYLQMNSLKSEDTAVYYCAKNWGDAGTTWFEKSGSAGQGTQVTVSS
notes: C-term myc-His6 tag
For the molecule B3, in assay [2], the koff amounted to 0.00142 s⁻¹. The “inhibition of SKBR3 cell proliferation ([3H]-thymidine), 50 nM Nanobody” value (“inhibition of SKBR3 cell proliferation” below) in assay [3] was around 18%.

B4: 2A4 (VHH)
VHH: EVQLVESGGGLVQPGGSLRLSCAASGFIFDDYAMSWVRQAPGKGLEWVSAINWSGSHRNYADSVKGRFTISRDNAKKTVYLQMNSLQSEDTAVYYCGTGWQSTTKNQGYWGQGTQVTVSS
notes: C-term myc-His6 tag
On to B4, for which the dissociation rate constant (koff) in assay [2] came out at 0.00205 s⁻¹. Moreover, the “inhibition of SKBR3 cell proliferation” value in assay [3] is around 30%.

B5: 2C5 (VHH)
VHH: EVQLVESGGGLVQAGGSLNLSCVASGIPFSTRTMAWYRQTPGKSRDWVATIRSGTPVYADSVKGRFTVSRDNAKNTLYLRMNSLKSEDSATYTCRAVNADIWGQGTQVTVSS
notes: C-term myc-His6 tag
Turning to B5, the binding result in assay [4] and in assay [5] was “binds” in each case.

B6: DUMMY-35GS-2D3 (bispecific antibody)
chain: EVQLVESGGGLVQAGGSLRLSCAASGRTFRSYPMGWFRQAPGKEREFVASITGSGGSTYYADSVKGRFTISRDNAKNTVYLQMNSLRPEDTAVYSCAAYIRPDTYLSRDYRKYDYWGQGTQVTVSSGGGGSGGGGSGGGGSGGGGSGGGGSGGGGSGGGGSEVQLVESGGSLVQPGGSLRLSCAASGFTFDDYAMSWVRQVPGKGLEWVSSINWSGTHTDYADSVKGRFTISRNNANNTLYLQMNSLKSEDTAVYYCAKNWRDAGTTWFEKSGSAGQGTQVTVSS
notes: C-term myc-His6 tag; also called dummy-2D3; Dummy-2D3
Regarding B6, in assay [6], the Kd amounted to 1.77 nM, the koff was found to be 0.00113 s⁻¹ and the kon was determined as 1.16e+06 M⁻¹ s⁻¹. For the same molecule, in assay [1], the koff was around 0.001 s⁻¹.

B7: 27H5-35GS-2D3 (bispecific antibody)
chain: EVQLVESGGGLVQAGGSLRLSCAASGFTFDDYGIGWFRQASGKEREGVSCITSSDGSTYYADSVKGRFTISSDNAKNTVYLQMNSLKPEDTAVYYCAALPFVCPSGSYSDYGDEYDYWGQGTQVTVSSGGGGSGGGGSGGGGSGGGGSGGGGSGGGGSGGGGSEVQLVESGGSLVQPGGSLRLSCAASGFTFDDYAMSWVRQVPGKGLEWVSSINWSGTHTDYADSVKGRFTISRNNANNTLYLQMNSLKSEDTAVYYCAKNWRDAGTTWFEKSGSAGQGTQVTVSS
notes: as for B1
For the molecule B7, the koff in assay [1] was around 0.001 s⁻¹.

B8: 27B7-35GS-2D3 (bispecific antibody)
chain: EVQLVESGGGLVQPGGSLRLSCAASGFTFSSYAMSWVRQAPGKGLEWVSAISSGGGSITTYADSVKGRFTISRDNAKNTLYLQMSSLKPEDTALYYCAKARSSSSYYDFGSWGQGTQVTVSSGGGGSGGGGSGGGGSGGGGSGGGGSGGGGSGGGGSEVQLVESGGSLVQPGGSLRLSCAASGFTFDDYAMSWVRQVPGKGLEWVSSINWSGTHTDYADSVKGRFTISRNNANNTLYLQMNSLKSEDTAVYYCAKNWRDAGTTWFEKSGSAGQGTQVTVSS
notes: biparatopic Nanobody; C-term myc-His6 tag; also called 2B7-35GS-2D3
Regarding B8, the koff in assay [1] is around 0.001 s⁻¹.

B9: 27A3-35GS-2D3 (bispecific antibody)
chain: EVQLVESGGGLVQAGGSLSLSCVASGRFFSTRVMAWYRQTPGKQREFVASMRGSGSTNYADSVRGRFAISRDNAKNTVYLQMNTLKPEDTAVYYCRDINEDQWGQGTQVTVSSGGGGSGGGGSGGGGSGGGGSGGGGSGGGGSGGGGSEVQLVESGGSLVQPGGSLRLSCAASGFTFDDYAMSWVRQVPGKGLEWVSSINWSGTHTDYADSVKGRFTISRNNANNTLYLQMNSLKSEDTAVYYCAKNWRDAGTTWFEKSGSAGQGTQVTVSS
notes: as for B1
For the molecule B9, the koff in assay [1] was around 0.0001 s⁻¹.

B10: 2C3 (VHH)
VHH: EVQLVESGGGLVQPGGSLRLSCVASGFSLDDYGMTWVRQAPGKGLEWVSSINWSGTHTDYADSVKGRFTISRDNAKNTLFLQMNSLRSEDTAVYYCNQGWKIVPTDRTGHGTQVTVSS
notes: C-term myc-His6 tag
Take B10: the koff in assay [2] amounted to 0.00111 s⁻¹. The “inhibition of SKBR3 cell proliferation” value in assay [3] is around 30%.

B11: 2H1 (VHH)
VHH: EVQLVESGGGLVQPGGSLRLSCVASGFSLDDYGMTWVRQAPGKGLEWVSSINWSGTHTDYADSVRGRFVISRDNAKNTLFLQMNSLSPEDTAVYYCNQGWKIIPTDRRGHGTQVTVSS
notes: C-term myc-His6 tag
On to B11, for which, in assay [7], the “% blocking of Herceptin binding” value was above 90%. The koff in assay [2] worked out at 0.00109 s⁻¹.

B12: 2B3 (VHH)
VHH: EVQLVESGGGLVQPGGSLRLSCVASGFSLDDYGMTWVRQAPGKGLEWVSSINWSGTHTDCADSVKGRFTISRDNAKNTLFLQMNSLTPEDTAVYYCNQGWKIIPTDRRGHGTQVTVSS
notes: C-term myc-His6 tag
As for B12, in assay [7], the “% blocking of Herceptin binding” value was above 90%. The koff in assay [2] was 0.00125 s⁻¹.

B13: 2D1 (VHH)
VHH: EVQLVESGGGLVQPGGSLRLSCVASGFSLDDYGMTWVRQAPGKGLEWVSSINWSGTHTDYADSVKGRFTISRDNAKNTLFLQMNSLSPEDTAVYYCNRGWKILPTNRGSHGTQVTVSS
notes: C-term myc-His6 tag
Take B13: in assay [7], the “% blocking of Herceptin binding” value is above 90%. Moreover, the koff in assay [2] worked out at 0.00127 s⁻¹.

B14: 2F4 (VHH)
VHH: EVQLVESGGGLVQPGGSLRLSCVASGFSLDDYGMTWVRQAPGKGLEWVSSINWSGTHTDYADSVKGRFTISRDNAKNTLFLQMNSLRSEDTAVYYCNQGWKIVPTDRRGHGTQVTVSS
notes: C-term myc-His6 tag
As to B14, in assay [7], the “% blocking of Herceptin binding” value was above 90%. For the same molecule, the koff in assay [2] turned out to be 0.00107 s⁻¹.

B15: 2F1 (VHH)
VHH: EVQLVESGGGLVQPGGSLRLSCVASGFSLDDYGMTWVRQAPGKELEWISSINWSGTHTDYADSVKGRFTISRDNAKNTLFLQMNSLTPEDTAVYYCNQGWKIVPMDRRGHGTQVTVSS
notes: C-term myc-His6 tag
With B15, in assay [7], the “% blocking of Herceptin binding” value is above 90%. Besides, the koff in assay [2] amounted to 0.00177 s⁻¹.

B16: 2G2 (VHH)
VHH: EVQLVESGGGLVQPGGSLRLSCVASGFSLDDYGMTWVRQAPGKGLEWVSSINWSGTHTDYTDPVKGRFTISRDNAKNTLFLQMNNLTPEDTAVYYCNRGWKIVPTDLGGHGTQVTVSS
notes: C-term myc-His6 tag
Regarding B16, the “% blocking of Herceptin binding” value in assay [7] is above 90%. Also, the koff in assay [2] was determined as 0.0013 s⁻¹.

B17: 2D3-35GS-2D3 (VHH)
chain: EVQLVESGGSLVQPGGSLRLSCAASGFTFDDYAMSWVRQVPGKGLEWVSSINWSGTHTDYADSVKGRFTISRNNANNTLYLQMNSLKSEDTAVYYCAKNWRDAGTTWFEKSGSAGQGTQVTVSSGGGGSGGGGSGGGGSGGGGSGGGGSGGGGSGGGGSEVQLVESGGSLVQPGGSLRLSCAASGFTFDDYAMSWVRQVPGKGLEWVSSINWSGTHTDYADSVKGRFTISRNNANNTLYLQMNSLKSEDTAVYYCAKNWRDAGTTWFEKSGSAGQGTQVTVSS
notes: bivalent 2D3, 35GS linker; C-term myc-His6 tag
Take B17: the koff in assay [1] was around 0.0001 s⁻¹.

B18: 2A1 (VHH)
VHH: EVQLVESGGGLVQAGGSLRLSCVASKITFRRYIMDWYRQAPGKQRELVASINSDGSTGYTDSVKGRFTISRDNTKNTLDLQMNSLKPEDTAVYYCHGRWLEIGAEYWGQGTQVTVSS
notes: C-term myc-His6 tag
In the case of B18, the binding result in assay [4] and in assay [5] was “binds” throughout.

B19: 27D1-35GS-2D3 (bispecific antibody)
chain: EVQLVESGGGLVQPGGSLRLSCVASGFSLDDYGMTWVRQAPGKGLEWVSSINWSGTHTDYADSVKGRFTISRDNAKNTLFLQMNSLTPEDTAVYYCNQGWKILPAERRGHGTQVTVSSGGGGSGGGGSGGGGSGGGGSGGGGSGGGGSGGGGSEVQLVESGGSLVQPGGSLRLSCAASGFTFDDYAMSWVRQVPGKGLEWVSSINWSGTHTDYADSVKGRFTISRNNANNTLYLQMNSLKSEDTAVYYCAKNWRDAGTTWFEKSGSAGQGTQVTVSS
notes: as for B1
With B19, in assay [1], the koff was around 0.0001 s⁻¹.

B20: DUMMY-35GS-47D5 (bispecific antibody)
chain: EVQLVESGGGLVQAGGSLRLSCAASGRTFRSYPMGWFRQAPGKEREFVASITGSGGSTYYADSVKGRFTISRDNAKNTVYLQMNSLRPEDTAVYSCAAYIRPDTYLSRDYRKYDYWGQGTQVTVSSGGGGSGGGGSGGGGSGGGGSGGGGSGGGGSGGGGSEVQLVESGGGLVQPGGSLRLSCAASGSIFGFNDMAWYRQAPGKQRELVALISRVGVTSSADSVKGRFTISRVNAKDTVYLQMNSLKPEDTAVYYCYMDQRLDGSTLAYWGQGTQVTVSS
notes: control: dummy Nanobody fused N-terminally to 47D5; C-term myc-His6 tag; also called Dummy-47D5
For the molecule B20, in assay [6], the Kd was found to be 3.21 nM, the koff stood at 0.000869 s⁻¹ and the kon was 271000 M⁻¹ s⁻¹.

Values taken from patent publication US20150232562A1 (Ablynx, published 2015).
